Values quoted from earlier work as cited in publication PMC7557795.

How the values were obtained:
[1] = target: IL-6R/gp130 (Homo sapiens) (UniProt P08887)
[2] = target: IL-6R (Homo sapiens) (UniProt P08887)
IL-6R (Homo sapiens), sequence (P08887 20-355): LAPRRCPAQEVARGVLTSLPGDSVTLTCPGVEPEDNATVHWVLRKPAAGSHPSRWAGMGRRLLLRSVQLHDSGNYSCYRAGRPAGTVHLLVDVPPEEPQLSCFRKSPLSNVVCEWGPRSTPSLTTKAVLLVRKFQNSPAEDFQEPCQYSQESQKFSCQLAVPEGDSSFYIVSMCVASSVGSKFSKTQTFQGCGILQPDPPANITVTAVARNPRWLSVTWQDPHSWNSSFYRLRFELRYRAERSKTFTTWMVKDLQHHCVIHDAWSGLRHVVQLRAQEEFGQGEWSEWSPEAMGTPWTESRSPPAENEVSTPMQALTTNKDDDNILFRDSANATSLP

IL-6, sequence (P05231 30-212): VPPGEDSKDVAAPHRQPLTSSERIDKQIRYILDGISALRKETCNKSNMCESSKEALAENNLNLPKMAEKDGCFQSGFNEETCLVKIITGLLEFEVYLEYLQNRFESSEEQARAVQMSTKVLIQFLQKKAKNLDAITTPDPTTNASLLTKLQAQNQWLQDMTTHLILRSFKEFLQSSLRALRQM
IL-6R/gp130 (Homo sapiens), sequence (P08887 20-365, chain 1 of 2): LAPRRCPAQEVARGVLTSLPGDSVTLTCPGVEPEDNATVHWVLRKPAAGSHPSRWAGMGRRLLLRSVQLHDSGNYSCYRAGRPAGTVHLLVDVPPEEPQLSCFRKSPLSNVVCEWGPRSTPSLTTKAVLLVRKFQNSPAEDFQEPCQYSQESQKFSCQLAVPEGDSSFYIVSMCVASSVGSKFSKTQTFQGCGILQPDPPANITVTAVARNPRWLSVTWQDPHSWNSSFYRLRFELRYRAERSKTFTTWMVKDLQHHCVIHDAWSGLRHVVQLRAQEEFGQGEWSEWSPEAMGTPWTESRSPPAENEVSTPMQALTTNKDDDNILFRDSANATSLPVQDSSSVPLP
IL-6R/gp130 (Homo sapiens), sequence (partner, as listed by the source, chain 2 of 2): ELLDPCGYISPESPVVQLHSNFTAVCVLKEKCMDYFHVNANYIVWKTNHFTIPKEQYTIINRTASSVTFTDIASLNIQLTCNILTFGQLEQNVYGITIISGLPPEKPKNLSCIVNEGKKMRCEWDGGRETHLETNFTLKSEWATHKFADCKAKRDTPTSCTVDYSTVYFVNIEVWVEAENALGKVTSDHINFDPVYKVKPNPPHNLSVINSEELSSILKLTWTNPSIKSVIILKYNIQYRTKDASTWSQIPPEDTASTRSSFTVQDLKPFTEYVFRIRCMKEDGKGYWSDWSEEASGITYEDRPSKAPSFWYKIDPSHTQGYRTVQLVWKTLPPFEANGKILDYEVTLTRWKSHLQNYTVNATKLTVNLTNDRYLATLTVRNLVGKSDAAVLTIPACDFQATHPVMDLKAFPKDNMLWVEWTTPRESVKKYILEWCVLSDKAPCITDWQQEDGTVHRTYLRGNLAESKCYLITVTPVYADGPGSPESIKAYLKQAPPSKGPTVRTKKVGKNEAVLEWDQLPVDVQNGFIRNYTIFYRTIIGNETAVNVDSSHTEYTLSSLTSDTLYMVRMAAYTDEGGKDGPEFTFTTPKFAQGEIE

Kd [1]: 0.08 nM
Kd [2]: 0.9 nM
Substance: IL-6 (from UniProt P05231)
